Source: paper doi:10.1101/2025.08.03.668247, “The structure of Egalitarian in complex with the K10 mRNA localization signal reveals a modular binding surface required for function”

Assays:
Test in all cases: fluorescence anisotropy; FA: 20 mM HEPES-NaOH pH 7.5, 100 mM NaCl, 10% glycerol, 20 C, 10 nM FAM-RNA; competition: 150 nM Egl512-819 + 10 nM FAM-K10 TLS, same buffer
Details in all cases: protein: recombinant; tags: N-terminal GST; label: 5'-6-FAM; hairpin with two bulges
R785A = molecular target: T1, R785A (Drosophila melanogaster, UniProt Q9W1K4 512-819, R785A)
T1 sequence: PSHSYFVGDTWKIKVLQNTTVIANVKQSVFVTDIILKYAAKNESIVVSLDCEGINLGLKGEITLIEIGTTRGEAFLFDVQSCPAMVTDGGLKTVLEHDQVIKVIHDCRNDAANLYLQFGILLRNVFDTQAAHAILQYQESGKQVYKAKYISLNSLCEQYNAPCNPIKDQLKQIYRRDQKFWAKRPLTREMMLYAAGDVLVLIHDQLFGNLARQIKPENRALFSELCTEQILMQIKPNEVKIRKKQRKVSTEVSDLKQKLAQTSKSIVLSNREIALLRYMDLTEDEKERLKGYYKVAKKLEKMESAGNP

K754E = molecular target: T2, K754E (Drosophila melanogaster, UniProt Q9W1K4 512-819, K754E)
T2 sequence: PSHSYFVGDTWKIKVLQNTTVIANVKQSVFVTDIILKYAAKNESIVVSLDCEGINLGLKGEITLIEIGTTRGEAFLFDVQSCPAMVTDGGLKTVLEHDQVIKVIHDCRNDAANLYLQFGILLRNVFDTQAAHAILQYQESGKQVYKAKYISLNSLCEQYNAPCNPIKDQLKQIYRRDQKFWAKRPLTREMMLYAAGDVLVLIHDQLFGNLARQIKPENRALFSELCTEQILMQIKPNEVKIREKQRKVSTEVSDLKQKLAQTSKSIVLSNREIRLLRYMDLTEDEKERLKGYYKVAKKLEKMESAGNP

K678A = molecular target: T3, K678A (Drosophila melanogaster, UniProt Q9W1K4 512-819, K678A)
T3 sequence: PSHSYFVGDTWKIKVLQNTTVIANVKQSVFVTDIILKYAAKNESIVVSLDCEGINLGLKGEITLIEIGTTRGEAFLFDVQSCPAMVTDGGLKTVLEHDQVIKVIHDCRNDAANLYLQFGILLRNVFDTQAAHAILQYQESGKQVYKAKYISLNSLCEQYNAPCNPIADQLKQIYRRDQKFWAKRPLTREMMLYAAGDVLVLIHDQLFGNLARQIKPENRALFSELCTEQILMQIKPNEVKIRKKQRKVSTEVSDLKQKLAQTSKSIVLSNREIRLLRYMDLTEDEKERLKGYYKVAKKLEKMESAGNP

K758A = molecular target: T4, K758A (Drosophila melanogaster, UniProt Q9W1K4 512-819, K758A)
T4 sequence: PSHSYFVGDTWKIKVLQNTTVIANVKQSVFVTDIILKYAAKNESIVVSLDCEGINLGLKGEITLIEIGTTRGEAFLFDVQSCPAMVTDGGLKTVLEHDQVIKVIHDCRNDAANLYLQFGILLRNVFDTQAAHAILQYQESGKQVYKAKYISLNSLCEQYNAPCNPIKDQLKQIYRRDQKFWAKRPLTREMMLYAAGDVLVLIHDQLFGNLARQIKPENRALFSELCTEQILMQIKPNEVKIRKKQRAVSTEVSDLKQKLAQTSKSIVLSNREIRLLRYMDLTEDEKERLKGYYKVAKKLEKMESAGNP

L-Triple = molecular target: T5, L-Triple (Drosophila melanogaster, UniProt Q9W1K4 512-819, R753E;K754E;K755E)
T5 sequence: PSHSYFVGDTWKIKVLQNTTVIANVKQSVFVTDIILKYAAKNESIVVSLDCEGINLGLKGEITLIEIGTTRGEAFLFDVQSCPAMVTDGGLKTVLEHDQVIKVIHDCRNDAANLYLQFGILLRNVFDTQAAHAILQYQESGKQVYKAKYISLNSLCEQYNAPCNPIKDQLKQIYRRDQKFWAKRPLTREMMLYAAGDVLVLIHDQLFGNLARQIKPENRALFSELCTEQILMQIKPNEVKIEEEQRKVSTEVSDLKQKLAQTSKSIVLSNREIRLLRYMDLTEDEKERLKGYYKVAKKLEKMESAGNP

L-EHD (Egl743-819) = molecular target: T6, L-EHD (Egl743-819) (Drosophila melanogaster, UniProt Q9W1K4 743-819)
T6 sequence: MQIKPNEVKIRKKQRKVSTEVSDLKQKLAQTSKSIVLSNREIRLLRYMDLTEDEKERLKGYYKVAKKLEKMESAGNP

CUUGAUUGUAUUUUUAAAUUAAUUCUUAAAAACUACAAAUUAAG (structured_RNA) [K10 TLS (FAM)]
Kd (R785A): 194 ± 10 nM | Kd (K754E): 263 ± 16 nM | Kd (K678A): 295 ± 8 nM | Kd (K758A): 319 ± 19 nM | Kd (L-Triple): 1460 ± 302 nM | Kd (L-EHD (Egl743-819)): 262 ± 9 nM
